From PMC9482650, “Quantitative fragmentomics allow affinity mapping of interactomes” (Nature Communications, 2022)

Legend:
Experiment in all cases: holdup assay
Set-up in all cases: key: below the threshold = too weak to quantify, mostly under pKd 3.1 to 4
FRMPD2_3, Q68DX3 = target: FRMPD2_3, Q68DX3
PDZD7_3, Q9H5P4 = target: T1, PDZD7_3, Q9H5P4
T1 sequence (Q9H5P4 857-944, limits assumed, looked up): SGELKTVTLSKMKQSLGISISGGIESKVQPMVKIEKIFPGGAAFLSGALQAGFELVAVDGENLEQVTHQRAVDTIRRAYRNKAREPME

GORASP1, Q9BQQ3 = target: GORASP1, Q9BQQ3
DLG4_3, P78352 = target: DLG4_3, P78352
GRIP1_3, Q9Y3R0 = target: T2, GRIP1_3, Q9Y3R0
T2 sequence (Q9Y3R0 247-346, limits assumed, looked up): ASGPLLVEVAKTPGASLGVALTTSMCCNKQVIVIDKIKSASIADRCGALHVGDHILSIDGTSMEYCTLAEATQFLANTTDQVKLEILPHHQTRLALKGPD

Inadl_2, Q8NI35 = target: Inadl_2, Q8NI35
PCLO, Q9Y6V0 = target: T3, PCLO, Q9Y6V0
T3 sequence (Q9Y6V0 4491-4600, limits assumed, looked up): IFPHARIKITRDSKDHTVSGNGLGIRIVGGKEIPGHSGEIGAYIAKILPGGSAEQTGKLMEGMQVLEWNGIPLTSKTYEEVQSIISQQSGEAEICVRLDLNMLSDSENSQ

FRMPD2_2, Q68DX3 = target: FRMPD2_2, Q68DX3
LNX1_1, Q8TBB1 = target: LNX1_1, Q8TBB1
GRIP2_7, Q9C0E4 = target: GRIP2_7, Q9C0E4
GRIP1_4, Q9Y3R0 = target: T4, GRIP1_4, Q9Y3R0
T4 sequence (Q9Y3R0 467-571, limits assumed, looked up): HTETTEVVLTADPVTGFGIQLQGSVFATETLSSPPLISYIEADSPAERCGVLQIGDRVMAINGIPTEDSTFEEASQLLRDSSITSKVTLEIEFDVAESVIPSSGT

PDZD2_2, O15018 = target: T5, PDZD2_2, O15018
T5 sequence (O15018 329-429, limits assumed, looked up): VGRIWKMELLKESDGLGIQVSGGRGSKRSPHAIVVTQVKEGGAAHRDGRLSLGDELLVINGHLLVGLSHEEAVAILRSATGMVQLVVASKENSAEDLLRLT

APBA1_2, Q02410 = target: T6, APBA1_2, Q02410
T6 sequence (Q02410 742-832, limits assumed, looked up): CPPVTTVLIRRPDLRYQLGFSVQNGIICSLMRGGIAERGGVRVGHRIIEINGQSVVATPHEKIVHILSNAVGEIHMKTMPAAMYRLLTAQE

LNX1_3, Q8TBB1 = target: LNX1_3, Q8TBB1
LAP2, Q96RT1 = target: LAP2, Q96RT1
LIN7B, Q9HAP6 = target: T7, LIN7B, Q9HAP6
T7 sequence (Q9HAP6 88-185, limits assumed, looked up): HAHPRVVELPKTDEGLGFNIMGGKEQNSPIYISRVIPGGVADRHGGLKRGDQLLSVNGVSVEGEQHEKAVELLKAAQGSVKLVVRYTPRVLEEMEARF

DLG1_1, Q12959 = target: DLG1_1, Q12959
MPP7, Q5T2T1 = target: T8, MPP7, Q5T2T1
T8 sequence (Q5T2T1 134-230, limits assumed, looked up): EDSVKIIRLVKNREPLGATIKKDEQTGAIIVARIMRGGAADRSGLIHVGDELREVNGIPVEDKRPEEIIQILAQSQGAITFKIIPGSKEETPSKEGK

FRMPD2_1, Q68DX3 = target: FRMPD2_1, Q68DX3
CASK, O14936 = target: CASK, O14936
MPP6, Q9NZW5 = target: T9, MPP6, Q9NZW5
T9 sequence (Q9NZW5 125-219, limits assumed, looked up): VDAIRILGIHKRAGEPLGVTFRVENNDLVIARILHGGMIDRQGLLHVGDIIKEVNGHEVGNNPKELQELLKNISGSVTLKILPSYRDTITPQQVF

NHERF3_4, Q5T2W1 = target: T10, NHERF3_4, Q5T2W1
T10 sequence (Q5T2W1 373-468, limits assumed, looked up): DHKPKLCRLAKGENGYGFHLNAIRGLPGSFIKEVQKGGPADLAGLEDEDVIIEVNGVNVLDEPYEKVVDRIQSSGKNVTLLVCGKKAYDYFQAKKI

RADIL, Q96JH8 = target: T11, RADIL, Q96JH8
T11 sequence (Q96JH8 971-1071, limits assumed, looked up): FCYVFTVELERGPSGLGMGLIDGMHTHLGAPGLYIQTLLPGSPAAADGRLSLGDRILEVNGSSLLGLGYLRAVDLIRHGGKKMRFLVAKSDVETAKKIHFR

MAGI2_4, Q86UL8 = target: MAGI2_4, Q86UL8
GRIP2_6, Q9C0E4 = target: GRIP2_6, Q9C0E4
GIPC2, Q8TF65 = target: GIPC2, Q8TF65
MAGI1_2, Q96QZ7 = target: MAGI1_2, Q96QZ7
[1] = plain residues with an end cap or a label only (N-terminal biotin on a linker: ado-ado)
[2] = plain residues with an end cap or a label only (N-terminal biotin on a linker: ahx)
[3] = plain residues with an end cap or a label only (N-terminal biotin on a linker: ttds)

LAP2, Q96RT1, sequence (Q96RT1 other isoform, or with tags, fused parts or gaps): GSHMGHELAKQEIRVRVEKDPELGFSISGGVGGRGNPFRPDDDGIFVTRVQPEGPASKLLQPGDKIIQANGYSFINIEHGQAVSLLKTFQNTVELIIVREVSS
DLG4_3, P78352, sequence (P78352 306-403): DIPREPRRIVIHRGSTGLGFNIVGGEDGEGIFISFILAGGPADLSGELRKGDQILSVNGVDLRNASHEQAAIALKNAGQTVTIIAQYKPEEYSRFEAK
MAGI1_2, Q96QZ7, sequence (Q96QZ7 456-580): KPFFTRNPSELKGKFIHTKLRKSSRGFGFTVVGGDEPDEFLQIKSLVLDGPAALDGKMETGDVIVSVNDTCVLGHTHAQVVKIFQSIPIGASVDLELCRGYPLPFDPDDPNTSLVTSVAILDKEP
FRMPD2_2, Q68DX3, sequence (Q68DX3 944-1038): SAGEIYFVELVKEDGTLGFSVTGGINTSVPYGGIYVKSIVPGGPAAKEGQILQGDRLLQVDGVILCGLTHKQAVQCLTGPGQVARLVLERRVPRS
LNX1_1, Q8TBB1, sequence (Q8TBB1 261-371): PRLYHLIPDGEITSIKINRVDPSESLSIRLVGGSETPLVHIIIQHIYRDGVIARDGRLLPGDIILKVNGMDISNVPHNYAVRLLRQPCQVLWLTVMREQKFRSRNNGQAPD
GIPC2, Q8TF65, sequence (Q8TF65 112-203): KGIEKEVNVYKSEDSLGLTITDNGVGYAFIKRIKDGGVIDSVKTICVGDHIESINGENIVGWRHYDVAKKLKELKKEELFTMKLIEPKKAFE
FRMPD2_3, Q68DX3, sequence (Q68DX3 1073-1166): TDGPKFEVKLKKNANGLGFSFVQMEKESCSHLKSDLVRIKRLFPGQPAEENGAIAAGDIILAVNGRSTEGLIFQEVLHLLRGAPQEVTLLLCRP
LNX1_3, Q8TBB1, sequence (Q8TBB1 500-596): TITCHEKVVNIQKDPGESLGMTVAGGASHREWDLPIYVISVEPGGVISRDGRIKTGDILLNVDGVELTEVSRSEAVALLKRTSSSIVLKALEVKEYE
GORASP1, Q9BQQ3, sequence (Q9BQQ3 1-208): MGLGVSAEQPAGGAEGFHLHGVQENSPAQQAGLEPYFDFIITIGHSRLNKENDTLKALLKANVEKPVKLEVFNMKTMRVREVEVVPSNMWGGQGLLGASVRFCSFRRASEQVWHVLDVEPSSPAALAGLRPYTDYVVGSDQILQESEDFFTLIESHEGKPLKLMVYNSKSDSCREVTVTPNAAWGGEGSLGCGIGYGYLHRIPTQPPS
FRMPD2_1, Q68DX3, sequence (Q68DX3 770-861): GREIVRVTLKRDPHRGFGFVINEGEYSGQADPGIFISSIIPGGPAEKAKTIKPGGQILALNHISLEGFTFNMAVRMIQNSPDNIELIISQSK
Inadl_2, Q8NI35, sequence (Q8NI35 238-335): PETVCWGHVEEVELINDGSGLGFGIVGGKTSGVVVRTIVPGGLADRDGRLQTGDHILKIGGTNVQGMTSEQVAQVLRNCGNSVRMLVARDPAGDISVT
CASK, O14936, sequence (O14936 487-570): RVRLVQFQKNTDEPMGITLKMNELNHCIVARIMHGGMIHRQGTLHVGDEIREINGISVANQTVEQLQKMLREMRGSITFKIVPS
MAGI2_4, Q86UL8, sequence (Q86UL8 772-865): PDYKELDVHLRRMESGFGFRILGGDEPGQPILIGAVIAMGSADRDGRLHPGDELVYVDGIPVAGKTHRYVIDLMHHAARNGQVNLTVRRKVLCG
GRIP2_6, Q9C0E4, sequence (Q9C0E4 648-740): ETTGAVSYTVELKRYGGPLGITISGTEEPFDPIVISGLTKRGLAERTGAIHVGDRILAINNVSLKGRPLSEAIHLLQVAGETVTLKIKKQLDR
GRIP2_7, Q9C0E4, sequence (Q9C0E4 934-1023): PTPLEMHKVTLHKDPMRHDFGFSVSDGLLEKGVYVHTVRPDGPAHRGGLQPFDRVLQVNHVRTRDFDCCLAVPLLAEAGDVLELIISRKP

B1: CES2, O00748 (peptide)
chain: EEPEERHTEL
Question: Which results are given for B1?
Answer: pKd (FRMPD2_3, Q68DX3; [1]): below the threshold; pKd (PDZD7_3, Q9H5P4; [1]): 4.72; pKd (GORASP1, Q9BQQ3; [1]): below the threshold; pKd (DLG4_3, P78352; [1]): below the threshold; pKd (GRIP1_3, Q9Y3R0; [1]): below the threshold; pKd (Inadl_2, Q8NI35; [1]): below the threshold; pKd (PCLO, Q9Y6V0; [1]): below the threshold; pKd (FRMPD2_2, Q68DX3; [1]): below the threshold; pKd (LNX1_1, Q8TBB1; [1]): 3.8; pKd (GRIP2_7, Q9C0E4; [1]): below the threshold; pKd (GRIP1_4, Q9Y3R0; [1]): below the threshold; pKd (PDZD2_2, O15018; [1]): 5.04; pKd (APBA1_2, Q02410; [1]): 3.5; pKd (LNX1_3, Q8TBB1; [1]): below the threshold; pKd (LAP2, Q96RT1; [1]): below the threshold; pKd (LIN7B, Q9HAP6; [1]): 3.89; pKd (DLG1_1, Q12959; [1]): below the threshold; pKd (MPP7, Q5T2T1; [1]): 3.79; pKd (FRMPD2_1, Q68DX3; [1]): below the threshold; pKd (CASK, O14936; [1]): below the threshold; pKd (MPP6, Q9NZW5; [1]): below the threshold; pKd (NHERF3_4, Q5T2W1; [1]): 4.48; pKd (RADIL, Q96JH8; [1]): below the threshold; pKd (MAGI2_4, Q86UL8; [1]): below the threshold; pKd (GRIP2_6, Q9C0E4; [1]): below the threshold; pKd (GIPC2, Q8TF65; [1]): below the threshold; pKd (MAGI1_2, Q96QZ7; [1]): below the threshold

B2: TMEM215, Q68D42 (peptide)
chain: QGRWDHETIV
Question: Which pKd (FRMPD2_3, Q68DX3; [2]) does the source give for B2 here?
Answer: 3.97

Question: What about the pKd (PDZD7_3, Q9H5P4; [2]) of the same binder?
Answer: 4.97

Question: And the pKd (GORASP1, Q9BQQ3; [2])?
Answer: 4.15

Question: And the pKd (DLG4_3, P78352; [2])?
Answer: 3.64

Question: What about the pKd (GRIP1_3, Q9Y3R0; [2]) of the same binder?
Answer: below the threshold

Question: What about the pKd (Inadl_2, Q8NI35; [2]) of the same binder?
Answer: 4.22

Question: And the pKd (PCLO, Q9Y6V0; [2])?
Answer: below the threshold

Question: What about the pKd (FRMPD2_2, Q68DX3; [2]) of the same binder?
Answer: 4.4

Question: And the pKd (LNX1_1, Q8TBB1; [2])?
Answer: 4.17

Question: What about the pKd (GRIP2_7, Q9C0E4; [2]) of the same binder?
Answer: below the threshold

Question: What about the pKd (GRIP1_4, Q9Y3R0; [2]) of the same binder?
Answer: below the threshold

Question: What about the pKd (PDZD2_2, O15018; [2]) of the same binder?
Answer: 4.69

Question: What about the pKd (APBA1_2, Q02410; [2]) of the same binder?
Answer: 3.9

Question: What about the pKd (LNX1_3, Q8TBB1; [2]) of the same binder?
Answer: below the threshold

Question: What about the pKd (LAP2, Q96RT1; [2]) of the same binder?
Answer: 4.09

Question: What about the pKd (LIN7B, Q9HAP6; [2]) of the same binder?
Answer: below the threshold

Question: What about the pKd (DLG1_1, Q12959; [2]) of the same binder?
Answer: 4.84

Question: And the pKd (MPP7, Q5T2T1; [2])?
Answer: 3.63

Question: What about the pKd (FRMPD2_1, Q68DX3; [2]) of the same binder?
Answer: below the threshold

Question: What about the pKd (CASK, O14936; [2]) of the same binder?
Answer: below the threshold

Question: What about the pKd (MPP6, Q9NZW5; [2]) of the same binder?
Answer: below the threshold

Question: And the pKd (NHERF3_4, Q5T2W1; [2])?
Answer: 3.52

Question: And the pKd (RADIL, Q96JH8; [2])?
Answer: 4.83

Question: What about the pKd (MAGI2_4, Q86UL8; [2]) of the same binder?
Answer: 4

Question: What about the pKd (GRIP2_6, Q9C0E4; [2]) of the same binder?
Answer: below the threshold

Question: What about the pKd (GIPC2, Q8TF65; [2]) of the same binder?
Answer: 3.81

Question: What about the pKd (MAGI1_2, Q96QZ7; [2]) of the same binder?
Answer: 3.84

B3: HPV51-E6, P26554 (peptide)
chain: RTRQRNETQV
Question: What does the source list for B3?
Answer: pKd (FRMPD2_3, Q68DX3; [3]): below the threshold; pKd (PDZD7_3, Q9H5P4; [3]): 3.88; pKd (GORASP1, Q9BQQ3; [3]): below the threshold; pKd (DLG4_3, P78352; [3]): 4.75; pKd (GRIP1_3, Q9Y3R0; [3]): below the threshold; pKd (Inadl_2, Q8NI35; [3]): below the threshold; pKd (PCLO, Q9Y6V0; [3]): below the threshold; pKd (FRMPD2_2, Q68DX3; [3]): 3.41; pKd (LNX1_1, Q8TBB1; [3]): below the threshold; pKd (GRIP2_7, Q9C0E4; [3]): 3.48; pKd (GRIP1_4, Q9Y3R0; [3]): below the threshold; pKd (PDZD2_2, O15018; [3]): 3.58; pKd (APBA1_2, Q02410; [3]): 3.56; pKd (LNX1_3, Q8TBB1; [3]): below the threshold; pKd (LAP2, Q96RT1; [3]): 3.69; pKd (LIN7B, Q9HAP6; [3]): below the threshold; pKd (DLG1_1, Q12959; [3]): 4.78; pKd (MPP7, Q5T2T1; [3]): below the threshold; pKd (FRMPD2_1, Q68DX3; [3]): below the threshold; pKd (CASK, O14936; [3]): below the threshold; pKd (MPP6, Q9NZW5; [3]): below the threshold; pKd (NHERF3_4, Q5T2W1; [3]): below the threshold; pKd (RADIL, Q96JH8; [3]): 3.82; pKd (MAGI2_4, Q86UL8; [3]): 4.4; pKd (GRIP2_6, Q9C0E4; [3]): below the threshold; pKd (GIPC2, Q8TF65; [3]): 3.63; pKd (MAGI1_2, Q96QZ7; [3]): 5.93
